# Reference: the RNAGym collection of RNA variant scans (doi:10.7554/elife.80360)
# B1: CPEB3 Ribozyme (parent)
# chain: GGGGGCCACAGCAGAAGCGUUCACGUCGCGGCCCCUGUCAGAUUCUGGUGAAUCUGCGAAUUCUGCUGU
# Variants of: B1
# Test: self-cleavage, relative activity (ratio to wild type); higher = more cleavage; co-transcriptional
row,Variant,self-cleavage
1,A16C C33A,0.213
2,A16C C33G,0.0588
3,A15U U38A,0.548
4,A15U U38G,0.178
5,A15U C39A,0.309
6,A15U C39G,0.622
7,A16C C24G,0.171
8,A15U U62G,0.991
9,A15U U62C,0.946
10,A15U C24G,0.214
11,A15U C24U,0.28
12,A16C G19C,0.0843
13,A16C G19U,0.137
14,A16C G19A,0.132
15,A15U G48A,0.925
16,A16C G25A,0.139
17,A16C G25U,0.103
18,A15U U44A,0.705
19,A15U G19C,0.132
20,A15U G19U,0.127
21,A15U G19A,0.13
22,A15U G56A,0.648
23,A15U G56C,0.402
24,A15U C18A,0.122

row,Variant,self-cleavage
1,A15U C18G,0.186
2,A15U C18U,0.338
3,A16C G28C,0.133
4,A16C G28A,0.103
5,A15U U53A,0.468
6,A15U U53G,0.566
7,A15U U53C,0.413
8,A16C C22G,0.0967
9,A16C C22A,0.105
10,A15U U36A,0.194
11,A15U U36G,0.181
12,A15U C34G,0.372
13,A15U C34A,0.513
14,A15U C34U,0.891
15,A15U G28C,0.206
16,A15U G28U,0.167
17,A16C C27A,0.114
18,A16C C27U,0.15
19,A16C C27G,0.122
20,A16C A59G,0.287
21,A15U U20G,0.132
22,A15U U20C,0.211
23,A15U U20A,0.106
24,A16C,0.373

row,Variant,self-cleavage
1,A15U U26A,0.34
2,A15U U26G,0.424
3,A15U U26C,0.634
4,A15U C33A,0.493
5,A15U C33U,0.912
6,A16C C29G,0.165
7,A16C C29A,0.186
8,A16C C29U,0.192
9,A15U U49C,0.817
10,A15U U49G,0.884
11,A15U U49A,0.931
12,A16C C34U,0.353
13,A16C C34G,0.168
14,A15U U21G,0.157
15,A15U U21C,0.592
16,A15U C29G,0.169
17,A15U C29A,0.245
18,A15U G58A,0.754
19,A15U G58C,0.821
20,A15U G58U,0.963
21,A15U U46C,0.848
22,A16C G41A,0.129
23,A16C G41U,0.142
24,A15U C54A,0.468

row,Variant,self-cleavage
1,A15U C54U,0.845
2,A15U C54G,0.412
3,A16C A52U,0.249
4,A16C A52C,0.239
5,A15U U55C,0.418
6,A15U U55A,0.412
7,A15U G68C,0.929
8,A16C C57U,0.107
9,A15U U67G,0.87
10,A15U U67A,0.889
11,A15U G30U,0.184
12,A15U G30C,0.287
13,A15U G30A,0.361
14,A16C G47C,0.368
15,A16C G47A,0.303
16,A16C C35G,0.118
17,A16C C35A,0.071
18,A16C C35U,0.17
19,A16C C18A,0.129
20,A16C C18G,0.114
21,A15U G31C,0.183
22,A15U G31U,0.205
23,A15U G31A,0.248
24,A16C A51U,0.239

row,Variant,self-cleavage
1,A16C A51C,0.217
2,A16C A51G,0.33
3,A15U G47A,0.95
4,A15U G47C,0.989
5,A15U G47U,0.919
6,A16C C54U,0.313
7,A16C C54A,0.256
8,A16C C54G,0.152
9,A16C G17C,0.0992
10,A16C G17A,0.144
11,A16C G17U,0.127
12,A16C A23U,0.549
13,A16C A23C,0.277
14,A16C A23G,0.0786
15,A15U U43G,0.429
16,A15U U43A,0.479
17,A15U U43C,0.731
18,A15U C32G,0.247
19,A15U C32A,0.285
20,A16C A60U,0.103
21,A16C A60G,0.418
22,A15U G37A,0.219
23,A15U G37C,0.179
24,A15U G37U,0.176

row,Variant,self-cleavage
1,A15U C57G,0.259
2,A15U C57A,0.298
3,A15U U69G,0.998
4,A15U G41C,0.257
5,A15U G41U,0.378
6,A15U C35U,0.776
7,A15U G65C,0.433
8,A16C C39A,0.108
9,A15U A60C,0.298
10,A15U A60G,0.416
11,A16C G48A,0.328
12,A15U C22A,0.225
13,A15U C22G,0.126
14,A15U C22U,0.107
15,A15U G17A,0.159
16,A15U G17U,0.221
17,A15U G50U,0.858
18,A15U G50C,0.795
19,A15U G25U,0.148
20,A16C C32G,0.136
21,A16C C32U,0.299
22,A15U C45G,0.823
23,A16C G30C,0.191
24,A16C A42U,0.102

row,Variant,self-cleavage
1,A16C A42C,0.245
2,A15U C63A,0.832
3,A15U C63U,0.794
4,A16C C66A,0.18
5,A16C C66G,0.198
6,A15U U64G,0.549
7,A15U U64C,0.654
8,A15U U64A,0.683
9,A15U C66G,0.516
10,A15U C66A,0.324
11,A15U C66U,0.643
12,A16C A40C,0.118
13,A16C A40U,0.0836
14,A15U C27G,0.168
15,A15U C27A,0.0897
16,A16C C63G,0.12
17,A16C C63A,0.173
18,A16C C63U,0.19
19,A15U U61C,0.686
20,A15U U61G,0.854
21,A16C G37A,0.0923
22,A16C G37C,0.176
23,A16C G37U,0.0859
